Results from the supplement of paper PMC9112550, “Optimization of the antimicrobial peptide Bac7 by deep mutational scanning” (BMC Biology, 2022).

Test system: Escherichia coli TOP10
Assay: shrunken log2 fold change of peptide-encoding DNA abundance (4.5 h post-induction vs induction); higher = less antimicrobial activity (less host growth inhibition)
Details: time post-induction: 4.5 h; library: site-saturation at positions 5, 18, 19, 20
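Further: peptides expressed intracellularly from a pBAD plasmid library in pooled LB shake-flask culture, induced with 0.3% L-arabinose, DNA abundance read by NGS, three biological replicates, DESeq2 with apeglm shrinkage.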

| Sequence | shrunken log2 fold change |
| --- | --- |
| RRIRLRPPRLPRPRPRPGDQPRP | 0.0619 |
| RRIRWRPPRLPRPRPRPHQDPRP | 0.134 |
| RRIRSRPPRLPRPRPRPPEIPRP | -0.19 |
| RRIRARPPRLPRPRPRPKDHPRP | 0.175 |
| RRIRQRPPRLPRPRPRPYRTPRP | 0.0218 |
| RRIRMRPPRLPRPRPRPTSIPRP | -0.0517 |
| RRIRNRPPRLPRPRPRPDTSPRP | -0.0648 |
| RRIRWRPPRLPRPRPRPWFWPRP | 0.123 |
| RRIRWRPPRLPRPRPRPPSYPRP | -0.116 |
| RRIRFRPPRLPRPRPRPCFWPRP | 0.0499 |
| RRIRWRPPRLPRPRPRPVVKPRP | -0.322 |
| RRIRSRPPRLPRPRPRPTQQPRP | 0.138 |
| RRIRQRPPRLPRPRPRPDFCPRP | -0.129 |
| RRIRARPPRLPRPRPRPMPKPRP | 0.411 |
| RRIRIRPPRLPRPRPRPWFEPRP | -0.161 |
| RRIRTRPPRLPRPRPRPDENPRP | 0.0019 |
| RRIRERPPRLPRPRPRPGWTPRP | 0.0709 |
| RRIRTRPPRLPRPRPRPYAKPRP | -0.0117 |
| RRIRLRPPRLPRPRPRPKQSPRP | -0.00745 |
| RRIRCRPPRLPRPRPRPVQPPRP | 0.455 |
| RRIRHRPPRLPRPRPRPYPMPRP | -0.2 |
| RRIRWRPPRLPRPRPRPDENPRP | 0.644 |
| RRIRYRPPRLPRPRPRPAIYPRP | -0.121 |
| RRIRCRPPRLPRPRPRPAQQPRP | 0.342 |
| RRIRIRPPRLPRPRPRPVNFPRP | -0.0259 |

| Sequence | shrunken log2 fold change |
| --- | --- |
| RRIRHRPPRLPRPRPRPRKHPRP | -0.113 |
| RRIRVRPPRLPRPRPRPKHCPRP | 0.0148 |
| RRIRLRPPRLPRPRPRPGFYPRP | -0.102 |
| RRIRKRPPRLPRPRPRPVMPPRP | 0.244 |
| RRIRSRPPRLPRPRPRPCSEPRP | -0.228 |
| RRIRQRPPRLPRPRPRPTGQPRP | 0.146 |
| RRIRPRPPRLPRPRPRPLNAPRP | -0.0965 |
| RRIRVRPPRLPRPRPRPLQEPRP | 0.298 |
| RRIRMRPPRLPRPRPRPDNLPRP | -0.205 |
| RRIRSRPPRLPRPRPRPPRSPRP | 0.483 |
| RRIRHRPPRLPRPRPRPVAQPRP | 0.0207 |
| RRIRKRPPRLPRPRPRPANQPRP | 0.239 |
| RRIRVRPPRLPRPRPRPYHRPRP | -2.18 |
| RRIRPRPPRLPRPRPRPTYKPRP | -0.455 |
| RRIRPRPPRLPRPRPRPVMMPRP | 3.4 |
| RRIRRRPPRLPRPRPRPSMWPRP | 0.168 |
| RRIRHRPPRLPRPRPRPKPDPRP | 0.0401 |
| RRIRHRPPRLPRPRPRPVYAPRP | -0.375 |
| RRIRYRPPRLPRPRPRPIHTPRP | -0.379 |
| RRIRVRPPRLPRPRPRPTSAPRP | 0.0866 |
| RRIRVRPPRLPRPRPRPPEPPRP | 0.382 |
| RRIRRRPPRLPRPRPRPIYIPRP | -0.184 |
| RRIRARPPRLPRPRPRPQCPPRP | 0.108 |
| RRIRLRPPRLPRPRPRPNRMPRP | 1.82 |
| RRIRPRPPRLPRPRPRPEGNPRP | 0.189 |

| Sequence | shrunken log2 fold change |
| --- | --- |
| RRIRMRPPRLPRPRPRPATEPRP | 0.996 |
| RRIRFRPPRLPRPRPRPIWGPRP | 0.0125 |
| RRIRLRPPRLPRPRPRPASMPRP | -0.357 |
| RRIRDRPPRLPRPRPRPQMIPRP | -0.197 |
| RRIRQRPPRLPRPRPRPAYRPRP | -0.216 |
| RRIRPRPPRLPRPRPRPLHNPRP | -0.201 |
| RRIRLRPPRLPRPRPRPFSPPRP | 2.3 |
| RRIRDRPPRLPRPRPRPEFFPRP | 0.896 |
| RRIRCRPPRLPRPRPRPLCGPRP | -0.0842 |
| RRIRMRPPRLPRPRPRPADMPRP | 0.728 |
| RRIRQRPPRLPRPRPRPINKPRP | -0.318 |
| RRIRFRPPRLPRPRPRPQTYPRP | -0.69 |
| RRIRARPPRLPRPRPRPISMPRP | 0.0208 |
| RRIRVRPPRLPRPRPRPGEDPRP | 0.0912 |
| RRIRVRPPRLPRPRPRPFFRPRP | 0.0448 |
| RRIRMRPPRLPRPRPRPYCGPRP | -0.0255 |
| RRIRLRPPRLPRPRPRPYWAPRP | 0.216 |
| RRIRRRPPRLPRPRPRPKYGPRP | -0.000734 |
| RRIRNRPPRLPRPRPRPGYKPRP | 0.0376 |
| RRIRLRPPRLPRPRPRPYPKPRP | -0.0574 |
| RRIRIRPPRLPRPRPRPFDNPRP | -1.1 |
| RRIRYRPPRLPRPRPRPKPSPRP | 0.433 |
| RRIRGRPPRLPRPRPRPSRVPRP | 0.61 |
| RRIRNRPPRLPRPRPRPKFAPRP | -0.0695 |
| RRIRNRPPRLPRPRPRPKYYPRP | -0.887 |

| Sequence | shrunken log2 fold change |
| --- | --- |
| RRIRDRPPRLPRPRPRPTMDPRP | -0.0444 |
| RRIRYRPPRLPRPRPRPRKHPRP | -0.483 |
| RRIRNRPPRLPRPRPRPMIPPRP | 0.0389 |
| RRIRSRPPRLPRPRPRPCDFPRP | -0.108 |
| RRIRMRPPRLPRPRPRPTCYPRP | 0.0375 |
| RRIRQRPPRLPRPRPRPWLCPRP | -0.0571 |
| RRIRCRPPRLPRPRPRPFKMPRP | -0.854 |
| RRIRMRPPRLPRPRPRPNCVPRP | -0.00674 |
| RRIRPRPPRLPRPRPRPKKMPRP | 2.39 |
| RRIRERPPRLPRPRPRPLQQPRP | 0.0643 |
| RRIRTRPPRLPRPRPRPSSRPRP | 0.543 |
| RRIRERPPRLPRPRPRPTPAPRP | 0.239 |
| RRIRRRPPRLPRPRPRPHNRPRP | 0.0584 |
| RRIRGRPPRLPRPRPRPPEKPRP | 1.64 |
| RRIRPRPPRLPRPRPRPYRKPRP | 0.0208 |
| RRIRGRPPRLPRPRPRPTRFPRP | 0.19 |
| RRIRERPPRLPRPRPRPSSGPRP | -0.648 |
| RRIRLRPPRLPRPRPRPNLAPRP | -0.0506 |
| RRIRKRPPRLPRPRPRPYENPRP | -0.517 |
| RRIRHRPPRLPRPRPRPCNEPRP | -0.00194 |
| RRIRARPPRLPRPRPRPKCNPRP | 0.0681 |
| RRIRVRPPRLPRPRPRPCFIPRP | -0.599 |
| RRIRWRPPRLPRPRPRPGEAPRP | 0.799 |
| RRIRPRPPRLPRPRPRPMMEPRP | 0.0824 |
| RRIRCRPPRLPRPRPRPTQYPRP | -0.0607 |

| Sequence | shrunken log2 fold change |
| --- | --- |
| RRIRCRPPRLPRPRPRPDLCPRP | -0.047 |
| RRIRPRPPRLPRPRPRPPWVPRP | 0.356 |
| RRIRERPPRLPRPRPRPVHCPRP | -0.293 |
| RRIRRRPPRLPRPRPRPHVRPRP | 0.0936 |
| RRIRHRPPRLPRPRPRPRWFPRP | 0.161 |
| RRIRVRPPRLPRPRPRPDNCPRP | -0.0588 |
| RRIRHRPPRLPRPRPRPMHWPRP | -0.134 |
| RRIRSRPPRLPRPRPRPWPPPRP | 0.51 |
| RRIRWRPPRLPRPRPRPMRTPRP | 0.273 |
| RRIRVRPPRLPRPRPRPHMDPRP | -0.449 |
| RRIRYRPPRLPRPRPRPMTNPRP | -1.55 |
| RRIRLRPPRLPRPRPRPQYQPRP | -0.801 |
| RRIRWRPPRLPRPRPRPKINPRP | -0.245 |
| RRIRDRPPRLPRPRPRPPQKPRP | -0.0517 |
| RRIRERPPRLPRPRPRPVQDPRP | -0.0228 |
| RRIRVRPPRLPRPRPRPFPRPRP | 0.0135 |
| RRIRHRPPRLPRPRPRPQTDPRP | -1.36 |
| RRIRLRPPRLPRPRPRPEGNPRP | -0.149 |
| RRIRVRPPRLPRPRPRPEEVPRP | 0.0207 |
| RRIRIRPPRLPRPRPRPPCFPRP | -0.11 |
| RRIRFRPPRLPRPRPRPMPWPRP | 0.157 |
| RRIRPRPPRLPRPRPRPWHGPRP | 0.0257 |
| RRIRARPPRLPRPRPRPVPAPRP | 0.814 |
| RRIRYRPPRLPRPRPRPHAYPRP | -0.0226 |
| RRIRWRPPRLPRPRPRPSVPPRP | 0.045 |

| Sequence | shrunken log2 fold change |
| --- | --- |
| RRIRGRPPRLPRPRPRPPYQPRP | 0.123 |
| RRIRTRPPRLPRPRPRPDIHPRP | -0.357 |
| RRIRKRPPRLPRPRPRPFNEPRP | 0.0442 |
| RRIRDRPPRLPRPRPRPWVMPRP | -0.167 |
| RRIRHRPPRLPRPRPRPPWYPRP | -0.232 |
| RRIRTRPPRLPRPRPRPGMSPRP | -0.352 |
| RRIRARPPRLPRPRPRPFMIPRP | -0.1 |
| RRIRNRPPRLPRPRPRPLIIPRP | -0.433 |
| RRIRNRPPRLPRPRPRPAASPRP | 0.739 |
| RRIRKRPPRLPRPRPRPLTWPRP | 0.13 |
| RRIRIRPPRLPRPRPRPVPYPRP | -0.556 |
| RRIRLRPPRLPRPRPRPEWTPRP | -0.019 |
| RRIRTRPPRLPRPRPRPTYWPRP | -0.00518 |
| RRIRSRPPRLPRPRPRPWELPRP | 0.637 |
| RRIRIRPPRLPRPRPRPGRLPRP | 0.12 |
| RRIRQRPPRLPRPRPRPWDWPRP | 0.0372 |
| RRIRARPPRLPRPRPRPNPVPRP | 0.0917 |
| RRIRKRPPRLPRPRPRPMSYPRP | -0.0167 |
| RRIRQRPPRLPRPRPRPGTCPRP | -0.266 |
| RRIRHRPPRLPRPRPRPGQRPRP | 0.0218 |
| RRIRLRPPRLPRPRPRPWRTPRP | 0.0595 |
| RRIRGRPPRLPRPRPRPACSPRP | 0.773 |
| RRIRNRPPRLPRPRPRPKWQPRP | 0.182 |
| RRIRKRPPRLPRPRPRPAPCPRP | 0.432 |
| RRIRPRPPRLPRPRPRPHGAPRP | 0.641 |
